Results on two molecules are retold here after paper PMC10975569.

The target of test [1] is T1, ostreolysin A6 (P. ostreatus) (UniProt P83467).
T1 sequence: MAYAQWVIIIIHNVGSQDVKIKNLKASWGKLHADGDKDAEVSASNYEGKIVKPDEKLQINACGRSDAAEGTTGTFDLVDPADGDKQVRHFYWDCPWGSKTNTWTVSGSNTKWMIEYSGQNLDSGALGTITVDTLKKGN

Test [2] has as its target heterolysin A (H. irregulare TC 32-1).

In the case of “nudolysin B (Δ30NudB) (domain or fragment)”, in the test with nudolysin A (L. nuda), the time of 100% hemolysis of bovine red blood cells, pH 6.0; NudA 1, 0.1 and 0.01 µM, NudA:NudB 10:1 (0.7 to 48.8 min) was 48.8 min; the time of 100% hemolysis of bovine red blood cells, pH 7.0; NudA 1 and 0.1 µM, NudA:NudB 10:1 (0.7 to 11.1 min); at 0.01 µM 100% hemolysis did not occur was 11.1 min; the time of 100% hemolysis of bovine red blood cells, pH 8.0; NudA 1 µM, NudA:NudB 10:1; at 0.1 and 0.01 µM 100% hemolysis did not occur came out at 2 min.

B1: pleurotolysin B (Δ48PlyB) (domain or fragment)
chain: SQAGDTLNDVIQDPTRRNKLINDNNLLKGIIMGRDGPVPSSRELIVRPDTLRAIINNRATIETTTMEAEFTETLMESNYNSASVKVSAPFITANSEYSESSSFKNTETEKSMYTSSRYLFPQGRIDFTTPDSGFDDVIKLSPQFTSGVQAALAKATGTEKREALQNLFQEYGHVFRTKVHIGGVLSAHTMETFSRSENETEVKQDVKAGLEGAVKGWGGGATAGHGNTQGTITTSQNRKLNVKYIVNGGDYTKIQNTEEWVASTNQSEHWRVIEVTEVTAVADLLPQPIRGQVKDLLKPLLGKWVDVEKVPGLESLPVSVYRPKGAIPAGWFWLGDTADASKALLVKPTLPARSGRNPALTSLHQGSGMTEQPFVDLPQYQYLSTYFGSFAHDTPPGSTLRGLRPDHVLPGRYEMHGDTISTAVYVTRPVDVPFPEDECFDLKSLVRVKLPGSGNPPKPRSALKKSMVLFDSGEK
In test [1], B1 had a time of 100% hemolysis of bovine red blood cells, pH 6.0; OlyA6 1, 0.1 and 0.01 µM, OlyA6:PlyB 10:1 (0.7 to 2.7 min) of 2.7 min; a time of 100% hemolysis of bovine red blood cells, pH 7.0; OlyA6 1, 0.1 and 0.01 µM, OlyA6:PlyB 10:1 (0.7 to 20.6 min) of 20.6 min; a time of 100% hemolysis of bovine red blood cells, pH 8.0; OlyA6 1, 0.1 and 0.01 µM, OlyA6:PlyB 10:1 (0.7 to 26.4 min) of 26.4 min. For the same molecule, in test [2], the time of 100% hemolysis of bovine red blood cells, pH 6.0; HetA 1, 0.1 and 0.01 µM, HetA:PlyB 10:1 (0.7 to 9.8 min) was 9.8 min; the time of 100% hemolysis of bovine red blood cells, pH 7.0; HetA 1 and 0.1 µM, HetA:PlyB 10:1 (1.3 to 8.2 min); at 0.01 µM 100% hemolysis did not occur came out at 8.2 min; the time of 100% hemolysis of bovine red blood cells, pH 8.0; HetA 1 and 0.1 µM, HetA:PlyB 10:1 (0.7 to 5.3 min); at 0.01 µM 100% hemolysis did not occur worked out at 5.3 min.
